From patent US20020192789A1 (published 2002)

B1: phage isolate 5-A11 display polypeptide (other)
chain: AEWHPQFSSPSASRPSEGPCHPQFPRCYIENLDEFRPGGSGGDLNDVYSERMAMWGAQSDGGGSTEHAEGGSADPSYIEGRIVGSA
notes: The printed 13-mer is used instead; also called 05-A11; not shown: M13 phage gene III protein; the display polypeptide is fused to its N-terminus
B2: phage isolate 5-B05 display polypeptide (other)
chain: AEWHPQFSSPSASRPSEGPCHPQFPRCYIENLDEFRPGGSGGSLDDDRTVSPKFWGAQSDGGGSTEHAEGGSADPSYIEGRIVGSA
notes: The printed 13-mer is used instead; also called 05-B05; not shown: M13 phage gene III protein; the display polypeptide is fused to its N-terminus
B3: phage isolate 5-H11 display polypeptide (other)
chain: AEWHPQFSSPSASRPSEGPCHPQFPRCYIENLDEFRPGGSGGMGDDDDKIYVYKTGAQSDGGGSTEHAEGGSADPSYIEGRIVGSA
notes: The printed 13-mer is used instead; also called 05-H11; not shown: M13 phage gene III protein; the display polypeptide is fused to its N-terminus
B4: phage isolate 5-F08 display polypeptide (unselected control) (other)
chain: AEWHPQFSSPSASRPSEGPCHPQFPRCYIENLDEFRPGGSGGAVLSNVMHSDDWTGAQSDGGGSTEHAEGGSADPSYIEGRIVGSA
notes: not shown: M13 phage gene III protein; the display polypeptide is fused to its N-terminus
B5: phage isolate 5-A01 display polypeptide (other)
chain: AEWHPQFSSPSASRPSEGPCHPQFPRCYIENLDEFRPGGSGGDRMYQLDKTGFMIGAQSDGGGSTEHAEGGSADPSYIEGRIVGSA
notes: as for B4
B6: phage isolate 5-A08 display polypeptide (other)
chain: AEWHPQFSSPSASRPSEGPCHPQFPRCYIENLDEFRPGGSGGDMFSEEDRMMQMQGAQSDGGGSTEHAEGGSADPSYIEGRIVGSA
notes: The printed 13-mer is used instead; also called 05-A08; not shown: M13 phage gene III protein; the display polypeptide is fused to its N-terminus
B7: GNYTDRMFI (peptide)
peptide: GNYTDRMFI
B8: DINDDRSLF (peptide)
peptide: DINDDRSLF
B9: GDDDDKIYV (positive control test peptide) (peptide)
peptide: GDDDDKIYV

These binders were tested against T1, streptavidin (UniProt P22629 37-163, limits assumed) (assay: phage ELISA, phage bound to immobilized streptavidin).
T1 construct: Commercial immobilized streptavidin; the construct is not described; also called Sv; immobilized streptavidin
T1 sequence (P22629 37-163 limits assumed): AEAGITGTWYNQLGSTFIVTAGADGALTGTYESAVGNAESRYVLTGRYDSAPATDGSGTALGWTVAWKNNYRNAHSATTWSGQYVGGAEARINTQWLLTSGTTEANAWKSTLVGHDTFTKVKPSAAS
B1: binds.
B2: binds.
B3: binds.
B4: binds.
B5: binds.
B6: binds.

These binders were tested against recombinant light chain enterokinase (Novagen, Madison, Wis.) (UniProt P98072 801-1035) (assay: cell-based or functional assay).
recombinant light chain enterokinase (Novagen, Madison, Wis.), sequence (P98072 801-1035 limits assumed): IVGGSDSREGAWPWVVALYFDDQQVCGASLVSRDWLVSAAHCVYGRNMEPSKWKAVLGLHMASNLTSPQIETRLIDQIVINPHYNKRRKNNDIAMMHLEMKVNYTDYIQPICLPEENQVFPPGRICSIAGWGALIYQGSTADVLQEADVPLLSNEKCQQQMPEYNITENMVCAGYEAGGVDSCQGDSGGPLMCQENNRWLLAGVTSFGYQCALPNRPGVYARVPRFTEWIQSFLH
B7 was tested, and the “test peptide rate (Va), in competition with reference peptide GDDDDK-βNA” value (from here on “test peptide rate (Va), in competition”) was 0.038.
For B8, the “test peptide rate (Va), in competition” value was 0.18.
For B9, the “test peptide rate (Va), in competition” value was 0.028.
